Data published in US7923016.

Each substance was assayed against CXC chemokine receptor 4 (CXCR4) on THP-1 cells (UniProt P61073) (assay: cell-based or functional assay).
CXC chemokine receptor 4 (CXCR4) on THP-1 cells, sequence (P61073 whole entry): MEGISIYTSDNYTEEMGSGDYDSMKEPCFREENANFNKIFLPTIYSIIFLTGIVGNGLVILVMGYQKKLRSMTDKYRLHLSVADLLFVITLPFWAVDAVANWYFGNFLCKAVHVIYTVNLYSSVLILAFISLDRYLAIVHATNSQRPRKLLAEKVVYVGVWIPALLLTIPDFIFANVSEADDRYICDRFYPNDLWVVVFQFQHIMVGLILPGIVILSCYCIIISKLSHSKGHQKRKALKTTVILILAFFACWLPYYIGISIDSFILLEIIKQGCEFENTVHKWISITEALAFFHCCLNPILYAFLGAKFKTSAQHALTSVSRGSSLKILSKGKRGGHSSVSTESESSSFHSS

Row | Substance | EC50 (nM), CXCR4 activation, Ca2+-flux in THP-1 cells [nM] | Fold Increase of EC50 over wild-type CXCL12-α [fold]
1 | CXCL12-α R41A (from UniProt P48061 22-93) (ligand) | 4.3 | 1.2
2 | CXCL12-α H25R (from UniProt P48061 22-93) (ligand) | 5.1 | 1.4
3 | CXCL12-α K64A (from UniProt P48061 22-93) (ligand) | 5 | 1.4
4 | CXCL12-α R20A (from UniProt P48061 22-93) (ligand) | 4.3 | 1.2
5 | CXCL12-α R47E (from UniProt P48061 22-93) (ligand) | 654 | 182
6 | CXCL12-α K27E (from UniProt P48061 22-93) (ligand) | 16.8 | 4.7
7 | CXCL12-α E60A (from UniProt P48061 22-93) (ligand) | 4.1 | 1.1
8 | CXCL12-α V49A (from UniProt P48061 22-93) (ligand) | 8.6 | 2.4
9 | CXCL12-α R47A (from UniProt P48061 22-93) (ligand) | 14.1 | 3.9
10 | CXCL12-α V39A (from UniProt P48061 22-93) (ligand) | 27.1 | 7.5
11 | CXCL12-α E63A (from UniProt P48061 22-93) (ligand) | 3.7 | 1
12 | CXCL12-α K27A (from UniProt P48061 22-93) (ligand) | 10.1 | 2.8

These substances were tested against wild-type CXCL12-α (UniProt P48061) (assay: apparent Kd; method not given).

Row | Substance | Kd [nM]
13 | p38-sY3 (CXCR4 N-terminal peptide p38 with sulfotyrosine at positions 7, 12 and 21) | 200

These substances were tested against wild-type CXCL12-α (UniProt P48061) (assay: method not given; reference is unsulfated p38).

Row | Substance | fold tighter binding than the unsulfated peptide (p38) [fold]
14 | p38-sY3 (CXCR4 N-terminal peptide p38 with sulfotyrosine at positions 7, 12 and 21) | 20
